This assay has as its target Cnidoin fragment (residues 150 to 419) with N-terminal ybbR tag and C-terminal type I dockerin-histidine tag (Hydra magnipapillata | not stated). Description: AFM single molecule force spectroscopy; Cnidoin-dockerin construct attached covalently by its ybbR tag to a coenzyme A glass surface; CBM A2C-Cohesin on the cantilever tip; 25 mM Tris, 72 mM NaCl, pH 7.2, 1 mM CaCl2, 10 mM DTT; pulling speeds 200 nm/s to 6,400 nm/s.

As to “CBM A2C-Cohesin from Clostridium thermocellum (domain or fragment)”, the rupture force stood at 100 pN.

The record behind these values is publication PMC4321713.
